# B1: IL-10 delivery construct: recombinant homodimeric fusion protein: N-terminal methionine, cholix386 domain, polyGlySer spacer, recombinant human IL-10 (protein)
# chain: MVEEALNIFDECRSPCSLTPEPGKPIQSKLSIPSDVVLDEGVLYYSMTINDEQNDIKDEDKGESIITIGEFATVRATRHYVNQDAPFGVIHLDITTENGTKTYSYNRKEGEFAINWLVPIGEDSPASIKISVDELDQQRNIIEVPKLYSIDLDNQTLEQWKTQGNVSFSVTRPEHNIAISWPSVSYKAAQKEGSRHKRWAHWHTGLALCWLVPMDAIYNYITQQNCTLGDNWFGGSYETVAGTPKVITVKQGIEQKPVEQRIHFSKGNAMSALAAHRVCGVPLETLARSRKPRDLTDDLSCAYQAQNIVSLFVATRILFSHLDSVFTLNLDEQEPEVAERLSDLRRINENNPGMVTQVLTVARQIYNDYVTHHPGLTPEQTSAGAQAGGGGSGGGGSGGGGSPGQGTQSENSCTHFPGNLPNMLRDLRDAFSRVKTFFQMKDQLDNLLLKESLLEDFKGYLGCQALSEMIQFYLEEVMPQAENQDPDIKAHVNSLGENLKTLRLRLRRCHRFLPCENKSKAVEQVKNAFNKLQEKGIYKAMSEFDIFINYIEAYMTMKIRN
# modifications: homodimer
# Columns and labels:
# [1] = Purification with and without sulfitolysis: SEC-HPLC forms, yield, dimer recovery
# Experimental: Refolding in both processes was carried out at 4° C. The refolding solution used in both processes contained 1 mM reduced glutathione, 0.5 mM oxidized glutathione, 1M Arginine-HCl, 250 mM sucrose, 100 mM Tris pH 8.5 at 4° C., and 2 mM EDTA.
# enterocytes = assay: Vesicular trafficking co-localization (Rab7, Rab11, LMAN1, LAMP1) in jejunum; assay type: in vivo, rat
# Description: The timing of LMAN1 redistribution to the basal compartment coincides with the presence of hIL-10 being ultimately detected in non-polarized cells within the Lamina propria where it was not associated with LMAN1.
# Ultimately, the delivery construct is delivered to lysosome-like structures within a large fraction of cells within the Lamina propria, an outcome that would limit its systemic distribution following A-B transcytosis.
# colonic tissue = assay: Pan-colonic administration in NHP: colonic tissue IL-10, IL-1Ra, pSTAT3, cytokines; assay type: in vivo, cynomolgus monkeys
# Experimental: IL-10 delivery construct solution (at concentrations of 0.1, 0.3 and 1.0 mg/mL for the low, mid and high-dose groups respectively) was administered via the rectal route using sigmoidoscopy and a syringe connected to a spray nozzle with a 360° spray pattern. Serial biopsy samples were collected by sigmoidoscopy (pre-dose, 0.25, 0.5, 0.75, 8 and 24-28 hours post dose). Serial plasma samples from 0 min pre-dose to between 24-28 hours post-dose were collected for analysis for the IL-10 delivery construct.
# Phosphorylation of STAT3 is an early downstream event following IL-10 receptor activation.
# (§1) Colonic biopsies at each tissue timepoint were analyzed for local concentration of IL-10 delivery construct, total IL-10, IL-1Ra, soluble cytokines, activation of STAT3 and gene expression following administration of the IL-10 delivery construct. […] In addition, STC1, MTNR1A and VNN2 encode proteins that suppress the […] signaling pathway, a pathway through which key pro-inflammatory cytokines are regulated. […] This is consistent with the ability of IL-10 to suppress these cells' activation or differentiation towards a pro-inflammatory immune phenotype.
# STAT3 phosphorylation = assay: pSTAT3 and hIL-10 immunofluorescence in intestine 40 min post oral gavage; assay type: in vivo, rat
# Experimental: This observation is consistent with findings in mice that intestinal epithelial cells can express IL-10 receptors at their apical surface under certain conditions associated with development and maintenance of barrier function. […] In order to quantify how test articles affected intestinal IL-10 signal transduction pathways, image analysis was performed: high-throughput image batches were collected, segmented by epithelial versus Lamina propria localization, and then by cellular features.
# colonic genes = assay: Pan-colonic administration in NHP: colonic gene expression at 8 h; assay type: in vivo, cynomolgus monkeys
# Experimental: as §1
# [2] = Intraluminal injection in T-cell transfer colitis model, rhIL-10 ELISA; assay type: in vivo, BALB/c and SCID mice
# Experimental: This study was conducted to examine the potential for the carrier protein to transport rhIL-10 from the intestinal lumen into the submucosal region in inflamed intestinal tissue. The T lymphocyte (T cell) transfer model was used as it is a well-established model of induced chronic colitis in mice and presents many of the essential immunological hallmarks observed in IBD patients. Nine BALB/c mice and twelve SCID mice, including nine with the colitis-like model of inflammation, were dosed with 20 μl of test article via intraluminal injection into the distal ileum and the proximal, middle and distal colon.
# PBS vehicle was administered to healthy BALB/c mice and both healthy and induced colitis SCID mice (n=3/group). In each group, two mice were terminated 10 minutes after intraluminal injections, and one was terminated 40 minutes after intraluminal injections. Intestinal tissue and serum were collected. Collected tissue was fixed, embedded, sectioned and H&E stained for histological assessment of inflammatory status. ELISA analysis to measure rhIL 10 was performed on lysates prepared from intestinal tissue and serum (FIGS. 106A-106D).
# circulating cytokines [3] = details: 8.45 mg/kg, Luminex
# [4] = PK/PD by oral, subcutaneous, intravenous route in NHP; assay type: in vivo, Macaca fascicularis
# Description: For oral administration the IL-10 delivery construct was formulated in size 0 enteric coated capsules. For intravenous or subcutaneous administration it was formulated as a liquid in DS lyo formulation.
# colonic markers = assay: Colonic sigmoidoscopy spray in NHP: inflammatory and tissue repair markers; assay type: in vivo, Macaca fascicularis; details: 1, 3, 10 mg
# Experimental: To assess the effect of an IL-10 delivery construct on pro-inflammatory and anti-inflammatory markers the IL-10 delivery construct was delivered to male Macaca fascicularis monkeys (about 5 to about 8 kg) by colonic sigmoidoscopy with a spray nozzle. The IL-10 delivery construct was administered at doses of 1 mg, 3 mg, and 10 mg formulated in albumin.
# [5] = 0.3 mg/mL, 5 h
# [6] = Phase 1a single ascending dose in healthy male volunteers; assay type: in vivo, human; details: 60 and 120 mg
# Experimental: In part B of the study, early data was gathered on the safety and tolerability, pharmacokinetics, pharmacodynamics and early clinical response following multiple ascending doses of the IL-10 delivery construct in Ulcerative Colitis (UC) patients (Part B).
# Part A consisted of a single-ascending dose (SAD) escalation in healthy male volunteers. Six cohorts consisting of orally administered single ascending doses were conducted. At each dose level, 6 subjects were enrolled, randomized 2:4 to receive a single dose of placebo or the IL-10 delivery construct on day 1. The doses selected were 1 mg, 3 mg, 10 mg, 30 mg, 60 mg, and 120 mg.
# Pre-clinical models have identified peripheral IL-1Ra production as a marker of IL-10 engagement to IL-10R in mucosal lymphocytes. To determine if the IL-10 delivery construct was actively transported across the epithelial cell lining into the Lamina propria and able to interact with lymphocytes, the levels of IL-1Ra induction was assessed.
# circulating cytokines [7] = assay: Plasma cytokines by MSD 10-plex, oxazolone dose response; set-up: species or system mice; details: mouse, in vivo
# Description: Plasma cytokines were quantified using the V-plex Proinflammatory Panel 1 Mouse Kit. Plasma IL-1Ra was quantitated by sandwich immunoassay using an antibody pair from the Mouse IL-1Ra/IL-1F3 DuoSet ELISA (R&D Systems #DY480), Streptavidin SULFO-TAG Labeled (MSD #R32AD-1), Multi-Array 96 Plate Pack, SECTOR Plate MSD #L15XA-3 and Read Buffer T (4×) (MSD #R92TC-2). Samples were read on the QuickPlex SQ 120 plate reader (Meso Scale Discovery, Rockville, Md.).
molecule,measurement,setting,value
B1,Dimer Purity (%),[1]; No Sulfitolysis of SIB (97 mL Capto Q),84%
same,Dimer Purity (%),[1]; Sulfitolysis of SIB (97 mL Capto Q),74%
same,co-localization with LAMP1 in polarized enterocytes,enterocytes; 1-15 min post ILI,Limited LAMP1/delivery construct co-localizations
same,co-localization with LMAN1,enterocytes; 1-15 min post ILI,co-localized with redistributing LMAN1
same,co-localization with LAMP1 in non-polarized cells of Lamina propria,enterocytes; 10 min and 15 min post ILI,extensive LAMP1/delivery construct co-localizations
same,co-localization with Rab7+ vesicles,enterocytes; enterocytes,predominantly in the apical vesicular compartment
same,co-localization with Rab11+ vesicles,enterocytes; enterocytes,mostly in the basal vesicular compartment
same,total IL-10 in colonic tissue,"colonic tissue; 1, 3, 10 mg",dose-dependent increase
same,colonic tissue pSTAT3/STAT3,colonic tissue; all doses tested,Higher ratios
same,hIL-10 and pSTAT3 in intestinal tissue,STAT3 phosphorylation,extensive amounts of hIL-10 and a large number of cells that were positive for pSTAT3 within the Lamina propria
same,"MMP1, MMP3 and MMP19 expression",colonic genes,upregulated
same,TIMP1 expression,colonic genes,increased
same,"anti-inflammatory genes (CD163, miR24-2, NOX1, STC1, MTNR1A, VNN2)",colonic genes,upregulated
same,"pro-inflammatory genes (MHCII, PLA2G2D, CCL20, CCL13)",colonic genes,decreased
same,CYP1A1 expression,colonic genes; 12-hour fast prior to treatment,downregulated
same,rhIL-10 in serum of healthy animals,[2]; 159 pmoles intraluminal,moderately high
same,rhIL-10 in serum of inflamed animals,[2]; 159 pmoles intraluminal,minimal amounts
same,rhIL-10 levels in inflamed tissue vs rhIL-10 alone,"[2]; 159 pmoles, 10 minutes",approximately 10 fold higher
same,rhIL-10 uptake in normal intestinal tissues vs rhIL-10 alone,"[2]; 159 pmoles, 10 minutes",two- to five-fold higher
same,reduction of plasma IL-6 vs Vehicle,circulating cytokines [3],33%
same,reduction of plasma IL-23 vs Vehicle,circulating cytokines [3],73%
same,systemic IL-10 after oral vs subcutaneous or intravenous administration,[4]; oral 1 mg or 5 mgs,minimal systemic levels of IL-10
same,IL-1Ra/IL-10 ratio,[4]; subcutaneous 0.2 mg/kg or intravenous 0.05 mg/kg,minimal effect
same,expression of anti-inflammatory markers,colonic markers,increased expression
same,expression of pro-inflammatory markers,colonic markers,decreased expression
same,expression of tissue repair and wound healing biomarkers,colonic markers,increased expression
same,solution stability in PBS at 37 °C,[5],significant degradation
same,solution stability in PBS at RT,[5],stable
same,IL-1Ra induction at high dose,[6],loss of immunomodulatory activity
same,"plasma cytokines, MSD 10-plex, vs Vehicle",circulating cytokines [7],no significant differences
